One block for each substance: values may come before it.
How the values were obtained:
[1] = molecular target: CEP55 His-NOA (His-tag version of the human CEP55 NOA fragment, residues 304–396) (human) (UniProt Q53EZ4); assay: BLI
[2] = molecular target: mixture of biotinylated K63 poly-ubiquitin chains (Ub2-7) (UniProt P0CG48); assay: BLI
[3] = molecular target: N-terminally fluorescein-labeled CEP55 ZF mutant E460A (human) (UniProt Q53EZ4); assay: fluorescence polarisation
N-terminally fluorescein-labeled CEP55 ZF mutant E460A (human), sequence (Q53EZ4 435-464 E460A): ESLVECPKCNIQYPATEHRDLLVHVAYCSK

CEP55 His-NOA (His-tag version of the human CEP55 NOA fragment, residues 304–396) (human), sequence (Q53EZ4 304-396): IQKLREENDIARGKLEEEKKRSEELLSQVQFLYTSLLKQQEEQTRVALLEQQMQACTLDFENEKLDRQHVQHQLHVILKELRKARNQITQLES

fold by which the KD is higher than that of M1-linked Ub4 [1]: 30 fold
Substance: K63-linked tetra-ubiquitin (Ub4) (from UniProt P0CG48 1-76) (complex)

Kd [2]: 2100 nM
Substance: Strep-tag II CEP55 ZF (StrepII-tag version of CEP55 ZF peptide, residues 435–464) (from UniProt Q53EZ4-1 435-464)

fold weaker affinity than WT [3]: 20 fold
Substance: mono-ubiquitin (from UniProt P0CG48 1-76) (natural protein)

— PMC6817665
